This experiment has as its target microtubule (in vitro reconstituted, taxol-stabilised). The experiment in a line: cell-based or functional assay.

In turn, “kinesin (positive control motor protein in the gliding assay)” came in with a % of gliding microtubules (n = 50), ATP of 89.2%; a Maximum gliding speed, ATP of 0.27 µm/min; a Mean gliding speed, ATP of 0.17 µm/min.

Values taken from patent US11214624.
